Experimental data reported in EP4674437A1.

Tests used:
[1] = target: Human DLL3 full-length protein (human); assay: FACS on H1184 cells
[2] = target: Human DLL3 full-length protein (human); assay: cell-based or functional assay
[3] = target: Cynomolgus monkey DLL3 full-length protein (cynomolgus monkey); assay: FACS on cynoDLL3/CHO-s cells

EC50 [1]: 3.94 nM
Emax (geometric MFI) [1]: 1620
EC50 [3]: 3.42 nM
Emax (geometric MFI) [3]: 963
Substance: BI-764532 (antibody)
IC50 (nM), cell killing caused by endocytosis of antibody (DT3C, DMS53/DLL3 cells) [2]: 3.27 nM
Imax, cell killing caused by endocytosis of antibody (DT3C, DMS53/DLL3 cells) [2]: 86.5
